For assay [1], the system named is Ras. Description: Ras activation assay in living cells, GRF4 and deletion mutants expressed in HEK-293T cells. The format is cell-based, human. Conditions: HEK-293T cells, no cNMP stimulation. Here is the method: HEK-293T cells were transfected with vector alone, GRF4 (WT), GRF4 lacking its cNMP-BD (ΔcNMP-BD) or its CDC25 domain (ΔCDC25), and then treated (or not) with 8-Br-cAMP. Cell lysates were then incubated with GST-Raf1-RBD to precipitate active Ras, and immunobloited with anti Ras antibodies as above (upper panel). Lower panels are controls for total endogenous Ras and transfected GRF4 or its mutants.
Flag, HA or myc tags was added to the N-terminus of full length GRF4 using PCR, and subcloned into the mammalian expression vector pCMV5 (Invitrogen). Mutants GRF4 with deletion of the CDC25 domain (residue 711-1007, GRF4DCDC25 or DCDC25 for short), the cNMP-BD (residue 134-254, DcNMP-BD), the PLPF motif in the PDZ domain (residue 396-399, -PLPF), or bearing mutations in the PDZ-binding motif (SAV to AAA), were generated using PCR. The GST-GRF4-cNMP-BD (residue 101-303) and GST-Carboxy-terminus (residue 1348-1499) were PCR-generated and cloned into pGEX-2T ( Pharmacia). The latter construct was used to generate a fusion protein (GST-GRF4C terminus) which was used to immunize rabbits for the generation of polyclonal anti GRF4 antibodies.
HEK-293T cells were transfected as above, serum starved overnight and then subjected to various treatments, as described in the text. […] GTP in the lysates was determined using activation specific probes as described. Briefly, to determined the levels of active Ras (Ras-GTP) in cell, sepharose-bound GST fusion protein of the Ras-binding domain (RBD) of Raf-1 (GST-Raf1-RBD; Upstate Biotechnology Inc.) was used to precipitate Ras-GTP from cell lysates, and the amount of Ras-GTP determined by immunoblotting with anti Ras antibodies (Quality Biotech). Similarly, to determine the level of Rap1-GTP in cell lysates, sepharose-bound GST fusion proteins of the Rap1-binding domain of RaIGDS (GST-RaIGDS-RBD) were used to precipitate Rap1-GTP, which was then detected on a Western blot using anti-Rap1 antibodies (Transduction Lab).

The subject of assay [2] is Ras. Briefly: In vitro GEF assay (32P-α-GTP binding to Ras). The format is biochemical. As to the method: Full length (GRF4) or CDC25-deleted (ΔCDC25) GRF4, or GRF2, each Flag-tagged, were immunoprecipitated from transfected Hek-293T cells using anti Flag antibodies. Equal amounts of immunoprecipitates were washed with GEF lysis buffer, equilibrated with GEF assay buffer and incubated with 32P-α-GTP (diluted in cold GTP) plus 100 ng of Ras for 30 min. Bound and unbound radiolabelled GTP were then separated by filtration, and the amount of bound GTP determined by scintillation counting, as detailed in the Method section. Fold Ras activation was compared to the activation of Ras in the absence of GRFs (which was set to 1).
GRF4 has a RasGRF(GEF) activity/function. To show its GEF activity, we performed in-vitro GEF assays. Briefly, GST-Ras was added alone (tubes 1 and 2) or along with GST-CDC25, or immunoprecipitated full-length of GRF4 (tubes 3 and 4). All tubes contained assay mixture including cold GTP and P32 alpha GTP. The exchange reactions were stopped at the indicated times. The stopped reaction mixtures were passed through nitrocellulose filters which were then washed with stop buffer to separate bound and unbound nucleotides. Filters were dried and then quantified by scintillation counting to determine bound CPM. The labeled nucleotides trapped on the washed filters were assumed to be Ras-associated. The difference in bound CPM over 30 minute period was determined for reactions where GST-Ras was added alone (it is the difference in bound CPM between tubes 1 and 2) and where GST-Ras was added with a GEF (it is the difference in bound CPM between tubes 3 and 4).

Another assay concerns Rap1. Briefly: Rap1 activation assay in living cells (GST-RalGDS-RBD pull-down). The class given is cell-based, human. Conditions: HEK-293T cells, via CDC25 domain. As to the method:
HEK-293T cells were transfected as above, serum starved overnight and then subjected to various treatments, as described in the text. Cells were lysed with lysis buffer (25 mM Hepes, pH 7.5, 150 mM NaCl, 1% NP-40, 0.25% Na deoxycholate, 10% glycerol, 25 mM NaF, 10 mM MgCl2, 1 mM EDTA, 1 mM NaVO4, […]) and the level of Ras.GTP or Rap. GTP in the lysates was determined using activation specific probes as described. Briefly, to determined the levels of active Ras (Ras-GTP) in cell, sepharose-bound GST fusion protein of the Ras-binding domain (RBD) of Raf-1 (GST-Raf1-RBD; Upstate Biotechnology Inc.) was used to precipitate Ras-GTP from cell lysates, and the amount of Ras-GTP determined by immunoblotting with anti Ras antibodies (Quality Biotech). Similarly, to determine the level of Rap1-GTP in cell lysates, sepharose-bound GST fusion proteins of the Rap1-binding domain of RaIGDS (GST-RaIGDS-RBD) were used to precipitate Rap1-GTP, which was then detected on a Western blot using anti-Rap1 antibodies (Transduction Lab).

In another assay the target is T1, GRF4-cNMP-BD (Homo sapiens, UniProt Q9Y4G8).
T1 construct: The GST-GRF4-cNMP-BD (residue 101-303); made in house
T1 sequence (Q9Y4G8 101-303): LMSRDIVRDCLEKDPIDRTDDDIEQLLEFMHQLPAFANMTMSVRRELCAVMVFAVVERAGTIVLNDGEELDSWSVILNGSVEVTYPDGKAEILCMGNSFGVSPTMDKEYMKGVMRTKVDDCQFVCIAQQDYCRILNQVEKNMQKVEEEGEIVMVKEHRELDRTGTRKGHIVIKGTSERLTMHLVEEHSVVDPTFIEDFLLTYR
Description: cAMP-agarose binding assay. The settings on record: cAMP agarose beads, anti GRF4 immunoblot. Here is the method: Right and left panels in (b) represent two separate experiments.
Following extensive washes in HNTG (20 mM Hepes, pH 7.5, 150 mM NaCl, 0.1% Triton ×100, 10% Glycerol) proteins were eluted off beads with sample buffer, separated on SDS-PAGE and immunoblotted with either anti GST antibodies for the in vitro binding experiments, or with anti GRF4 antibodies for the pull down experiments.

In a further assay the test system is Rat 2 fibroblasts. Description: Transformation assay (foci formation). The settings on record: transient transfection, cultured three weeks. The class given is cell-based. Here is the method: Transformation assays were performed using Rat 2 fibroblasts, a suitable cell type for this assay. Rat 2 cells were transiently transfected with empty vector, GRF4 construct, or mutant RasV12 construct (a transforming form of Ras used as a positive control). After transfection, cells were cultured over a period of three weeks with routine changes of media, and were routinely examined for morphology changes under a light microscope.

Assay [3] concerns Ras. Briefly: In vitro pull-down of GRF4 with GST-Ras of different nucleotide-bound states. Conditions: lysates of 293T cells with Flag-tagged GRF4, GST-Ras beads. The format is binding. The source says:
Beads were washed and resolved on SDS-PAGE and subsequently immunoblofted with anti-Flag antibodies to detect Flag-tagged GRF4. […] However, it bound to Ras differentially, depending on the nucleotide-bound states of Ras.

B1: GRF4: Ras guanine nucleotide exchange factor polypeptide, SEQ ID NO: 2, 1499 amino acids (protein, listed as Homo sapiens)
chain: MKPLAIPANHGVMGQQEKHSLPADFTKLHLTDSLHPQVTHVSSSHSGCSITSDSGSSSLSDIYQATESEAGDMDLSGLPETAVDSEDDDDEEDIERASDPLMSRDIVRDCLEKDPIDRTDDDIEQLLEFMHQLPAFANMTMSVRRELCAVMVFAVVERAGTIVLNDGEELDSWSVILNGSVEVTYPDGKAEILCMGNSFGVSPTMDKEYMKGVMRTKVDDCQFVCIAQQDYCRILNQVEKNMQKVEEEGEIVMVKEHRELDRTGTRKGHIVIKGTSERLTMHLVEEHSVVDPTFIEDFLLTYRTFLSSPMEVGKKLLEWFNDPSLRDKVTRVVLLWVNNHFNDFEGDPAMTRFLEEFENNLEREKMGGHLRLLNIACAAKAKRRLMTLTKPSREAPLPFILLGGSEKGFGIFVDSVDSGSKATEAGLKRGDQILEVNGQNFENIQLSKAMEILRNNTHLSITVKTNLFVFKELLTRLSEEKRNGAPHLPKIGDIKKASRYSIPDLAVDVEQVIGLEKVNKKSKANTVGGRNKLKKILDKTRISILPQKPYNDIGIGQSQDDSIVGLRQTKHIPTALPVSGTLSSSNPDLLQSHHRILDFSATPDLPDQVLRVFKADQQSRYIMISKDTTAKEVVIQAIREFAVTATPDQYSLCEVSVTPEGVIKQRRLPDQLSKLADRIQLSGRYYLKNNMETETLCSDEDAQELLRESQISLLQLSTVEVATQLSMRNFELFRNIEPTEYIDDLFKLRSKTSCANLKRFEEVINQETFWVASEILRETNQLKRMKIIKHFIKIALHCRECKNFNSMFAIISGLNLAPVARLRTTWEKLPNKYEKLFQDLQDLFDPSRNMAKYRNVLNSQNLQPPIIPLFPVIKKDLTFLHEGNDSKVDGLVNFEKLRMIAKEIRHVGRMASVNMDPALMFRTRKKKWRSLGSLSQGSTNATVLDVAQTGGHKKRVRRSSFLNAKKLYEDAQMARKVKQYLSNLELEMDEESLQTLSLQCEPATNTLPKNPGDKKPVKSETSPVAPRAGSQQKAQSLPQPQQQPPPAHKINQGLQVPAVSLYPSRKKVPVKDLPPFGINSPQALKKILSLSEEGSLERHKKQAEDTISNASSQLSSPPTSPQSSPRKGYTLAPSGTVDNFSDSGHSEISSRSSIVSNSSFDSVPVSLHDERRQRHSVSIVETNLGMGRMERRTMIEPDQYSLGSYAPMSEGRGLYATATVISSPSTEELSQDQGDRASLDAADSGRGSWTSCSSGSHDNIQTIQHQRSWETLPFGHTHFDYSGDPAGLWASSSHMDQIMFSDHSTKYNRQNQSRESLEQAQSRASWASSTGYWGEDSEGDTGTIKRRGGKDVSIEAESSSLTSVTTEETKPVPMPAHIAVASSTTKGLIARKEGRYREPPPTPPGYIGIPITDFPEGHSHPARKPPDYNVALQRSRMVARSSDTAGPSSVQQPHGHPTSSRPVNKPQWHKPNESDPRLAPYQSQGFSTEEDEDEQVSAV
Consider B1, for which the “Activation of endogenous Ras by heterologous expression” value with Ras [1] was “weak activation”. Also, the “In vitro GEF activity on Ras” value in the assay with Ras [2] was “active on Ras”. Further, the “Fold Ras activation in vitro (activation without GRFs set to 1)” value in the assay with Ras [2] (immunoprecipitated Flag-tagged protein, 100 ng Ras, 30 min) was around 2.9 fold. In addition, the “Activation of Rap1 in cells” value in the assay on Rap1 is “mediates activation of Rap1”. Also, in the assay with GRF4-cNMP-BD, the “Precipitation by immobilized cAMP from lysates of expressing HEK-293T cells” value is listed as “able to precipitate”. Further, in the assay on Rat 2 fibroblasts, the “Foci formation / transformed phenotype of transfected cells” value is “induced foci formation”. Besides, in the assay with Ras [3], the “Binding to EDTA-treated Ras (nucleotide-free)” value is “bound strongly”, the “Binding to Ras-GDP” value is on record as “bound weakly” and the “Binding to Ras-GTP” value is recorded as “bound strongly”.
